Residue numbers refer to the chain shown, from its start. In names and notes the source's numbering stands.
B1: monoclonal antibody secreted by hybridoma clone 8G2F10 (antibody, V domains shown)
VH: QVQLQQSGAELAKPGASVKLSCKASGYTFTSYWMYWVKQRPGQGLEWIGHINPSSGYTKYNQKFKDKATLTADKSSSTAYMQLSSLTYEDSAVYYCARDPNWDNYWGQGTTLTVSS
VL: DIVMTQSHKFMSTSVGDRVSITCKASQDVSIAVAWYQQKPGQSPKLLIYSASYRYTGVPDRFTGSGSGTDFTFTISSVQAEDLAVYYCQQHYSTPYTFGGGTKLEIK
notes: Mouse hybridoma antibody
B2: hu043.04 (antibody, V domains shown)
VH: QVQLVQSGAEVKKPGASVKVSCKASGYTFTSYWMYWVRQAPGQGLEWIGHINPSSGYTKYNQKFKDRATLTADTSTSTAYMELSSLRSEDTAVYYCARDPNWDNYWGQGTTVTVSS
VL: DIQMTQSPSSLSASVGDRVTITCKASQDVSIAVAWYQQKPGKAPKLLIYSASYRYTGVPSRFSGSGSGTDFTFTISSLQPEDIATYYCQQHYSTPYTFGGGTKLEIK
notes: Humanized human IgG4 antibody with S228P in the constant region; also called hu043VH6 / hu043VL2
B3: hu043.01 (antibody, V domains shown)
VH: B2 VH
VL: B2 VL with Q3V, T20S, S60D
notes: Humanized human IgG4 antibody with S228P in the constant region; also called hu043VH6 / hu043VL4
B4: hu043.02 (antibody, V domains shown)
VH: B2 VH with A68V, L70M, A79V
VL: B2 VL with Q3V, T20S, S60D
notes: Humanized human IgG4 antibody with S228P in the constant region; also called hu043VH7 / hu043VL4
B5: hu043.03 (antibody, V domains shown)
VH: B2 VH with V5Q, V20L, A40R
VL: B2 VL with Q3V, T20S, S60D
notes: Humanized human IgG4 antibody with S228P in the constant region; also called hu043VH8 / hu043VL4
B6: hu043.05 (antibody, V domains shown)
VH: B2 VH with A68V, L70M, A79V
VL: B2 VL
notes: Humanized human IgG4 antibody with S228P in the constant region; also called hu043VH7 / hu043VL2
B7: hu043.06 (antibody, V domains shown)
VH: B2 VH with V5Q, V20L, A40R
VL: B2 VL
notes: Humanized human IgG4 antibody with S228P in the constant region; also called hu043VH8 / hu043VL2
B8: hu043.07 (antibody, V domains shown)
VH: B2 VH with R67K, T74K
VL: B2 VL with L11M, L78V
notes: Humanized human IgG4 antibody with S228P in the constant region; also called hu043VH9 / hu043VL1
B9: hu043.08 (antibody, V domains shown)
VH: B2 VH with R67K, T74K, V112L
VL: B2 VL with L11M, L78V
notes: Humanized human IgG4 antibody with S228P in the constant region; also called hu043VH10 / hu043VL1

How the values were obtained:
[1] = target: Human LILRB3 ECD recombinant protein with 6×His-tag (human) (UniProt O75022); experiment: ELISA: plate coated with LILRB3 ECD recombinant protein, antibody at 0.5 ug/mL (method of example 3.2.1); mean OD450 printed over the bar [continued) G]
[2] = target: Human LILRA3 ECD recombinant protein with 6×His-tag (human) (UniProt Q8N6C8); experiment: ELISA: plate coated with LILRA3 ECD recombinant protein, antibody at 0.5 ug/mL (method of example 3.2.1); mean OD450 printed over the bar [continued) C]
[3] = target: Human LILRA5 ECD recombinant protein with 6×His-tag (human) (UniProt A6NI73); experiment: ELISA: plate coated with LILRA5 ECD recombinant protein, antibody at 0.5 ug/mL (method of example 3.2.1); mean OD450 printed over the bar [continued) E]
[4] = target: Human LILRA4 ECD recombinant protein with 6×His-tag (human) (UniProt P59901); experiment: ELISA: plate coated with LILRA4 ECD recombinant protein, antibody at 0.5 ug/mL (method of example 3.2.1); mean OD450 printed over the bar [continued) D]
[5] = target: Human LILRB1 ECD recombinant protein with 6×His-tag (human) (UniProt Q8NHL6); experiment: ELISA: plate coated with LILRB1 ECD recombinant protein, antibody at 0.5 ug/mL (method of example 3.2.1); mean OD450 printed over the bar [continued) F]
[6] = target: Human LILRA2 ECD recombinant protein with His-tag (human) (UniProt Q8N149); experiment: ELISA: plate coated with LILRA2 ECD recombinant protein, antibody at 0.5 ug/mL (method of example 3.2.1); mean OD450 printed over the bar [continued) B]
[7] = target: 6×His-tagged human LILRB2 ECD recombinant protein (human) (UniProt Q8N423); experiment: ELISA: plate coated with 6xHis-tagged human LILRB2 ECD, antibody at 0.5 ug/mL, HRP detection antibody; mean OD450 printed over the bar
[8] = target: Human LILRB4 ECD recombinant protein with 6×His-tag (human) (UniProt Q8NHJ6); experiment: ELISA: plate coated with LILRB4 ECD recombinant protein, antibody at 0.5 ug/mL (method of example 3.2.1); mean OD450 printed over the bar [continued) H]
[9] = target: Human LILRB5 ECD recombinant protein with 6×His-tag (human) (UniProt O75023); experiment: ELISA: plate coated with LILRB5 ECD recombinant protein, antibody at 0.5 ug/mL (method of example 3.2.1); mean OD450 printed over the bar [continued) I]
[10] = target: Human LILRA1 ECD recombinant protein with 6×His-tag (human) (UniProt O75019); experiment: ELISA: plate coated with LILRA1 ECD recombinant protein, antibody at 0.5 ug/mL (method of example 3.2.1); mean OD450 printed over the bar
[11] = target: T1, 6×His-tagged human LILRB2 ECD recombinant protein (human, UniProt Q8N423 22-458, limits assumed); experiment: Bio-Layer Interferometry, hybridoma antibody on human LILRB2
T1 construct: Bought protein; not shown: 6×His-tag

[12] = target: T2, Human LILRB2 stably expressed on EL4 cells (EL4/LILRB2) (human, UniProt Q8N423 22-597); experiment: competitive FACS, blockade of HLA-G binding to LILRB2 on cells
T2 construct: also called EL4-LILRB2 cells; cell membrane human LILRB2
Description: The blocking activities were determined by quantitating the blockade of the ligands binding to EL4/LILRB2 cells.

[13] = target: T2, Human LILRB2 stably expressed on EL4 …; experiment: FACS on EL4/LILRB2 cells
[14] = target: T1, 6×His-tagged human LILRB2 ECD …; experiment: Octet, 1:1 model
[15] = target: T1, 6×His-tagged human LILRB2 ECD …; experiment: Octet, 1:1 model; column printed as 'ka (1/Ms)', heads of c4 and c5 are swapped
[16] = target: T1, 6×His-tagged human LILRB2 ECD …; experiment: Octet, 1:1 model; column printed as 'kd (1/s)', heads of c4 and c5 are swapped
[17] = target: T1, 6×His-tagged human LILRB2 ECD …; experiment: Biacore, 1:1 model; column printed as 'ka (1/Ms)', heads of c4 and c5 are swapped
[18] = target: T1, 6×His-tagged human LILRB2 ECD …; experiment: Biacore, 1:1 model; column printed as 'kd (1/s)', heads of c4 and c5 are swapped
[19] = target: T1, 6×His-tagged human LILRB2 ECD …; experiment: Biacore, 1:1 model

T1 sequence (Q8N423 22-458 limits assumed): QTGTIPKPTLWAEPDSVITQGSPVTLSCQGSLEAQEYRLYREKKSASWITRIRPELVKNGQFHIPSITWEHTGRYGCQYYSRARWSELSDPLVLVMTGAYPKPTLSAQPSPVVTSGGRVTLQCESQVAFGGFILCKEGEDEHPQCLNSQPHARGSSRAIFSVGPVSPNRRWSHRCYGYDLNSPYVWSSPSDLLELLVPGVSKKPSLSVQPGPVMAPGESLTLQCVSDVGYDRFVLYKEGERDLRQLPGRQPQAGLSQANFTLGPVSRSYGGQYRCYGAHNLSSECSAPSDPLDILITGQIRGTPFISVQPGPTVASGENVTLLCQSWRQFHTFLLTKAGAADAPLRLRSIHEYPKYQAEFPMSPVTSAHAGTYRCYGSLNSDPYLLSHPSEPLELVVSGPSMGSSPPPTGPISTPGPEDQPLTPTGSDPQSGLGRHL
T2 sequence (Q8N423 22-597 limits assumed): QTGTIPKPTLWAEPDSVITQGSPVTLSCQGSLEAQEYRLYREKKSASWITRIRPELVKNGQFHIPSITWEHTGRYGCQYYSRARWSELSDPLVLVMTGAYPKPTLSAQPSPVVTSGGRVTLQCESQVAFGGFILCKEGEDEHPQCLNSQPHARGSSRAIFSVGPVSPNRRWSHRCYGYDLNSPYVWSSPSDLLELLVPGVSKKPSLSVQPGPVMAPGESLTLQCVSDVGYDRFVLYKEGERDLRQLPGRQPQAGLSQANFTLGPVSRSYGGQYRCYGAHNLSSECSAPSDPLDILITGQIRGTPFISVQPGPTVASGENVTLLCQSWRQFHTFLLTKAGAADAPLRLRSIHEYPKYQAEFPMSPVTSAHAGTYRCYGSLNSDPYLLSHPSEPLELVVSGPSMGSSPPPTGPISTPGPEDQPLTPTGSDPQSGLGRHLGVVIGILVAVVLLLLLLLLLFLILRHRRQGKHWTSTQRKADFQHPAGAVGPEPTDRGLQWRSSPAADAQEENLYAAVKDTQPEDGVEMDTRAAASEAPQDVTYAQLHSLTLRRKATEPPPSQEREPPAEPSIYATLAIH
Human LILRA2 ECD recombinant protein with His-tag (human), sequence (Q8N149 24-449 limits assumed): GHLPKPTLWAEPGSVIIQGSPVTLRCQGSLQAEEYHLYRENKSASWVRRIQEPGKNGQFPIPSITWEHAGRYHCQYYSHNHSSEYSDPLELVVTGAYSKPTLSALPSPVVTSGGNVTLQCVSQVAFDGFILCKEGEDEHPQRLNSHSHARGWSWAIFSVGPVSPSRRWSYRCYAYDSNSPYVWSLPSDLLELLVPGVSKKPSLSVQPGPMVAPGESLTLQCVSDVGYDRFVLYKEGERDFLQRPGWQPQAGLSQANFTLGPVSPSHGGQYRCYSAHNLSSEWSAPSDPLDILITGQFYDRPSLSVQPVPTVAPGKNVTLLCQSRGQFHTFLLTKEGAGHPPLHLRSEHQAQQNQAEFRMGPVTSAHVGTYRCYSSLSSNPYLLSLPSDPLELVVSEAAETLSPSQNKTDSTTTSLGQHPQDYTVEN
Human LILRB5 ECD recombinant protein with 6×His-tag (human), sequence (O75023 24-458 limits assumed): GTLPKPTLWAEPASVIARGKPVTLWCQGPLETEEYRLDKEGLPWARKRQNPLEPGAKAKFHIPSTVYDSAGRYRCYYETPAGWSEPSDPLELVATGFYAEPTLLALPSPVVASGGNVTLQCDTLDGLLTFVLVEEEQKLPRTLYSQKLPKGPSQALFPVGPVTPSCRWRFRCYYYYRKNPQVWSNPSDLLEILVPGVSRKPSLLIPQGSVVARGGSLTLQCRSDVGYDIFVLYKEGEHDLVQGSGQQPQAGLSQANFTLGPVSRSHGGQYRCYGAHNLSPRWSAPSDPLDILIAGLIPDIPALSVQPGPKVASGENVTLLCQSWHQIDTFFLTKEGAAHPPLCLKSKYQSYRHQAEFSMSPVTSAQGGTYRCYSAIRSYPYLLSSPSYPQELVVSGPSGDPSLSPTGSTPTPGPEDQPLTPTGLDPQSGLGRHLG
Human LILRA1 ECD recombinant protein with 6×His-tag (human), sequence (O75019 17-461 limits assumed): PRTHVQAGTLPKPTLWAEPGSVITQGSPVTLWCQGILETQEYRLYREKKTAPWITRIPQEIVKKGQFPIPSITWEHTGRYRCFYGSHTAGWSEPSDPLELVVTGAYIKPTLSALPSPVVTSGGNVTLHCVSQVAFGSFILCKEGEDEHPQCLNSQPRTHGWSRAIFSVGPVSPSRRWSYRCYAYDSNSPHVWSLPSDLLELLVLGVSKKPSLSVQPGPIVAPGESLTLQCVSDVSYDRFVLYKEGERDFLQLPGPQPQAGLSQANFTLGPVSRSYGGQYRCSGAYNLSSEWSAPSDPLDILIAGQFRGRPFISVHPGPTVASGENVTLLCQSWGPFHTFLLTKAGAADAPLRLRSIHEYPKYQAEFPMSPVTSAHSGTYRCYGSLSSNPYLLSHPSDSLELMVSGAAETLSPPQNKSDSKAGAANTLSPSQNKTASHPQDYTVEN
Human LILRA5 ECD recombinant protein with 6×His-tag (human), sequence (A6NI73 42-268 limits assumed, form in doubt): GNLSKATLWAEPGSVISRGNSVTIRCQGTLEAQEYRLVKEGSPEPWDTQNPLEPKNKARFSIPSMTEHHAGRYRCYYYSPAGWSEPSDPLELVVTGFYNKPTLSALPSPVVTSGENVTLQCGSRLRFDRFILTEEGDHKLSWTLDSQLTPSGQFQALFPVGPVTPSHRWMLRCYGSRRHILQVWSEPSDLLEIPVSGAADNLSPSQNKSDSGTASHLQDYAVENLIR
6×His-tagged human LILRB2 ECD recombinant protein (human), sequence (Q8N423 22-458 limits assumed): as the sequence (Q8N423 22-458 limits assumed) above
Human LILRB1 ECD recombinant protein with 6×His-tag (human), sequence (Q8NHL6 24-458 limits assumed): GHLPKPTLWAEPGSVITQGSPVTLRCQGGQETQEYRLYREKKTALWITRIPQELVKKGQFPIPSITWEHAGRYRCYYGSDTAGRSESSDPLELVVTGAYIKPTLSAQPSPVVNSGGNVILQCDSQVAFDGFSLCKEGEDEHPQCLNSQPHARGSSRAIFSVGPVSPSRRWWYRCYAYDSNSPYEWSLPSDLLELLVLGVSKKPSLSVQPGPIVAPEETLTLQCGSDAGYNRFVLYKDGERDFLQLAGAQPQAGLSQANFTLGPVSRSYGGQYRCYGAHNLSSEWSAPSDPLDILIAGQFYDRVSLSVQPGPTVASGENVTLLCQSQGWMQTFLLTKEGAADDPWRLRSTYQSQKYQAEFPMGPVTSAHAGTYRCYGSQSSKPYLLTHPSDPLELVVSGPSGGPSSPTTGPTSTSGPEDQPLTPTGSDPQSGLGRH
Human LILRA4 ECD recombinant protein with 6×His-tag (human), sequence (P59901 24-446 limits assumed): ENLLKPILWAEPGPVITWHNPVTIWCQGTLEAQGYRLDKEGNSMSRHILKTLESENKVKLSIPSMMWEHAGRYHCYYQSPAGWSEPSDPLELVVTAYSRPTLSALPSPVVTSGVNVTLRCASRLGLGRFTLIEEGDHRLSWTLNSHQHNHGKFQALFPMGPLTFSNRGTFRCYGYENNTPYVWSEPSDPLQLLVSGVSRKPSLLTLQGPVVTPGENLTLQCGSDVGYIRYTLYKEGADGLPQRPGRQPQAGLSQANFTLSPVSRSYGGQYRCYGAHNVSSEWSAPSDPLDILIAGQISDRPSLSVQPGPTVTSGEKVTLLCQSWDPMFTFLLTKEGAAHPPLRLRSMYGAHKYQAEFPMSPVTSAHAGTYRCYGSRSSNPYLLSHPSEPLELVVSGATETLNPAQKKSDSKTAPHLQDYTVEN
Human LILRA3 ECD recombinant protein with 6×His-tag (human), sequence (Q8N6C8 24-439 limits assumed, form in doubt): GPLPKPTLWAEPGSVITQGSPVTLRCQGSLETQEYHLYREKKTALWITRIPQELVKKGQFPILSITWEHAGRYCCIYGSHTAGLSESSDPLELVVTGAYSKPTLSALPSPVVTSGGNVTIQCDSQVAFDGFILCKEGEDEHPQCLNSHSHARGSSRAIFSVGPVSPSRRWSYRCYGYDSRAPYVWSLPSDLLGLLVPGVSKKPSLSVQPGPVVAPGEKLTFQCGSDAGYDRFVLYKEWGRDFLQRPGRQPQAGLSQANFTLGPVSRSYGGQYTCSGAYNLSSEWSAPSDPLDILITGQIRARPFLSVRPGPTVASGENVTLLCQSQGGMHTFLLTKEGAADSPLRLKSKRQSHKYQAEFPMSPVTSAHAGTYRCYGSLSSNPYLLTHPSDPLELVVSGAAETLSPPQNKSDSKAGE

IC50 [12]	TOP Blocking (%) [12]	EC50 [13]	TOP MFI [13]	Kd [14]	koff [15]	kon [16]	other results	Molecule
							OD450 [1]: 0.08; OD450 [2]: 0.08; OD450 [3]: 0.08; OD450 [4]: 0.16; OD450 [5]: 0.08; OD450 [6]: 0.07; OD450 [7]: 0.08; OD450 [8]: 0.14; OD450 [9]: 0.08; OD450 [10]: 0.15	hIgG4 iso (antibody)
							Kd [11]: 1.35 nM; koff [11]: 0.00139 s⁻¹; kon [11]: 1.04e+06 M⁻¹ s⁻¹	B1
0.11 nM	100%	0.43 nM	45000 MFI	3.78 nM	0.00185 s⁻¹	488000 M⁻¹ s⁻¹		B2
0.11 nM	100%	0.42 nM	45800 MFI	3.19 nM	0.00164 s⁻¹	516000 M⁻¹ s⁻¹		B3
0.1 nM	100%	0.35 nM	45700 MFI	3.57 nM	0.00184 s⁻¹	517000 M⁻¹ s⁻¹		B4
0.1 nM	100%	0.41 nM	46300 MFI	5.22 nM	0.00243 s⁻¹	466000 M⁻¹ s⁻¹		B5
0.09 nM	100%	0.42 nM	45100 MFI	3.9 nM	0.00199 s⁻¹	501000 M⁻¹ s⁻¹		B6
0.11 nM	100%	0.4 nM	45700 MFI	3.63 nM	0.00186 s⁻¹	512000 M⁻¹ s⁻¹		B7
0.19 nM	100%						koff [17]: 0.00379 s⁻¹; kon [18]: 2.25e+06 M⁻¹ s⁻¹; Kd [19]: 1.68 nM	B8
0.19 nM	100%						koff [17]: 0.00378 s⁻¹; kon [18]: 2.21e+06 M⁻¹ s⁻¹; Kd [19]: 1.71 nM	B9
